The values below come from patent US5567302A, “Electrochemical system for rapid detection of biochemical agents that catalyze a redox potential change” (priority 1995, dated 1996).

The subject of the data set is OC[C@H]1O[C@@H](Oc2c[nH]c3ccc(Br)c(Cl)c23)[C@H](O)[C@@H](O)[C@H]1O. As to the kind of experiment: purified protein, by the assay type. To be noted: other: β-D-galactosidase substrate; stated when explaining why the standard curve levels off at high enzyme amounts.

In general, Km refers to the concentration of substrate that gives half-maximal velocity. For “biotinylated β-D-galactosidase (Escherichia coli K-12)”, the Km amounted to 3000 µM.
